Test results taken from publication PMC6131548, “Molecular basis for disassembly of an importin:ribosomal protein complex by the escortin Tsr2” (Nature Communications, 2018).
Blank lines part the entries; values can stand above or below the binder they belong to.

Tests used:
Conditions in all cases: both partners purified
[1] = target: T1, Tsr2 of the recombinant Tsr2:eS26 complex (XL-MS) (S. cerevisiae (yeast), UniProt Q06672 1-205); experiment: cross-linking; recombinant Tsr2:eS26 complex, 1 mg/ml in 50 mM HEPES; DSS, PDH/DMTMM or ADH/DMTMM, 37 °C; digestion, SEC, LC-MS/MS (XL-MS)
T1 construct: Tsr2, S. cerevisiae; source: recombinant Tsr2:eS26 complex, 1 mg/ml in 50 mM HEPES
T1 sequence (looked up): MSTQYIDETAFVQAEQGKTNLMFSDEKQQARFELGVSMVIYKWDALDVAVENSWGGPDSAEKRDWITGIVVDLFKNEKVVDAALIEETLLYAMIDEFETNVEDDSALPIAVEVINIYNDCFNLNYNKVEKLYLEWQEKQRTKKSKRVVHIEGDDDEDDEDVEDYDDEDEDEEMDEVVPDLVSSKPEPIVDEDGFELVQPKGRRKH

Tsr2-N (NMR) = target: T2, Tsr2-N (NMR) (S. cerevisiae (yeast), UniProt Q06672 1-152); experiment: NMR titration; stepwise titration of the unlabeled component to the labeled one (Tsr2-N, ESS2 peptide), followed by 2D 15N,1H-HSQC; 293.15 K, NMR buffer
T2 construct: Used unlabeled or 13C,15N-labeled; also called N-terminal domain of Tsr2; source: E. coli BL21 (DE3) CodonPlus-RIL, purified (HisTrap, TEV, Superdex 75); not shown: (His)6-tagged GB1 domain, N-terminal, cleaved
T2 sequence (looked up): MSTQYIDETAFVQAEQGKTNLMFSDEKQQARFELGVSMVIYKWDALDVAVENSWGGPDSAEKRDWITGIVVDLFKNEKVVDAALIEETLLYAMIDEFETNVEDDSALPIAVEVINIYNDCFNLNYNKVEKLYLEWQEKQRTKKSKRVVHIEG

hTsr2E64G (ITC) = target: T3, hTsr2E64G (ITC) (human, UniProt Q969E8 1-191, E64G); experiment: ITC; VP-ITC; 20–40 µM Tsr2 variant in the cell, 400–800 µM ESS2 peptide in the syringe; 25 °C, 20 mM NaPi pH 7.1, 1 mM DTT, 10 µM EDTA
T3 construct: human Tsr2 with the Diamond-Blackfan anemia-linked mutation E64G; also called E64G-DBA variant; hTsr2E64G mutant; source: E. coli BL21
T3 sequence (looked up): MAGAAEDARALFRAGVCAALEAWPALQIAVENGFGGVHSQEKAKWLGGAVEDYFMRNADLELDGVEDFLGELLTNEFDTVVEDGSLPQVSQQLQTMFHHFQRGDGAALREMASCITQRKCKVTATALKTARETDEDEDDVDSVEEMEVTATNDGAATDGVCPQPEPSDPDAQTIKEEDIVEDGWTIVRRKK

hTsr2 (ITC) = target: T4, hTsr2 (ITC) (human, UniProt Q969E8 1-191); experiment: as above
T4 construct: human Tsr2; probably made like the NMR constructs; also called WT hTsr2; human Tsr2; source: E. coli BL21
T4 sequence (looked up): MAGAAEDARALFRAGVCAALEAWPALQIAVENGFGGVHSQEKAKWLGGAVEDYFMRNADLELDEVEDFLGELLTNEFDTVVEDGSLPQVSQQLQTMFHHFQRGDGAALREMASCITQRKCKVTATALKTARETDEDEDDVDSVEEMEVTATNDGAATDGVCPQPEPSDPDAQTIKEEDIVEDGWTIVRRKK

binding result [1]: binds
B1: eS26 of the recombinant Tsr2:eS26 complex (XL-MS) (natural protein)
chain: not shown
notes: ribosomal protein eS26 (Rps26A), S. cerevisiae; source: recombinant Tsr2:eS26 complex, 1 mg/ml in 50 mM HEPES

binding result (Tsr2-N (NMR)): binds
B2: ESS2 peptide (peptide, UniProt P39938 100-119, looked up)
peptide: RPRFNRENKVSPADAAKKAL
notes: eukaryotic-specific segment 2 of eS26 (Rps26A), S. cerevisiae, residues 100-119 as deposited; ESS2 is defined as 99-119 in the results, the deposited peptide as 100-119; also called eS26-ESS2; S26A(100-119); source: E. coli BL21 (DE3) CodonPlus-RIL, cleaved from (His)6-GB1 by TEV, purified by reverse-phase HPLC (C8); not shown: (His)6-tagged GB1 domain, N-terminal, cleaved

Kd (hTsr2E64G (ITC)): 90 µM | Kd (hTsr2 (ITC)): 2000 nM
B3: human ESS2 peptide (peptide)
chain: RFRPAGAAPRPPPKPM
modifications: Human limits are not printed. They are taken by ungapped alignment to the yeast ESS2 construct in PDB 6G04 (eS26 residues 100-119; the text defines ESS2 as 99-119), running to the human C-terminus. …
